Assay [1] has as its target T1, His-tagged CEACAM1 (human, UniProt P13688 35-428).
T1 construct: 45 kDa SPR analyte; also called CEACAM1-HIS; CEACAM1 analyte
T1 sequence: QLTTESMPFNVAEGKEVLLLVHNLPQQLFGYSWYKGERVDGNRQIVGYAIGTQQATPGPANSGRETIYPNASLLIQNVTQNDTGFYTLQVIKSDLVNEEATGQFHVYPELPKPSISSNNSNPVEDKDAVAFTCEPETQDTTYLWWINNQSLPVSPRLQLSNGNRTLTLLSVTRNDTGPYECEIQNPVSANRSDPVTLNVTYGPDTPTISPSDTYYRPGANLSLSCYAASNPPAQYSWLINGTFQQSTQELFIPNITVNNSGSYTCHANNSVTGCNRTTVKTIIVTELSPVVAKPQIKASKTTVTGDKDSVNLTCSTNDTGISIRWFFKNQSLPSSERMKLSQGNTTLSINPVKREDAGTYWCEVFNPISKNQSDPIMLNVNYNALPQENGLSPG
Description: SPR single-cycle, supernatant IgG captured. The essentials:
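Humanized, affinity-matured IgGs from crude supernatant (0.5 μg/ml in HBS-P+) captured on Protein A to ~100 RU. Single-cycle kinetics: CEACAM1 at three concentrations, 70–280 nM two-fold, 80 μl/min, 80 s association each, 150 s dissociation. Reference-channel and blank-run subtraction applied.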

The target of assay [2] is T2, CEACAM6 on transfected HeLa cells (human, UniProt P40199 35-320).
T2 construct: whole, on cells; also called HeLa-CEACAM6; HeLa C6
T2 sequence (looked up): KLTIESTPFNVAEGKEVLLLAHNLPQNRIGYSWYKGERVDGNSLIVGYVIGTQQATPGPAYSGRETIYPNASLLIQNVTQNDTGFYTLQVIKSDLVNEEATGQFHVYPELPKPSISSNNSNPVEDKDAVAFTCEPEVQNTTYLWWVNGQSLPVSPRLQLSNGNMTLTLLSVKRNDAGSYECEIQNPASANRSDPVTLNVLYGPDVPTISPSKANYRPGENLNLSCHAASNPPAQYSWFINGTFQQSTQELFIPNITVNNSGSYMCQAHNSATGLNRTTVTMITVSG
Description: flow cytometry titration, HeLa-CEACAM6 transfectants, anti-human IgG4 FITC. How it is done:
FIGS. 31A and 31B show flow cytometry analyses of stable HeLa CEACAM1 (HeLa C1) transfectant, stable HeLa CEACAM3 transfectant (HeLa C3), stable HeLa CEACAM5 transfectant (HeLa C5), stable HeLa CEACAM6 transfectant (HeLa C6), and stable HeLa CEACAM8 transfectant (HeLa C8). FIG. 31A: 5×10\hat{ }4 indicated HeLa transfectants were washed with staining buffer and CP08H03/Vκ8 S29A (labeled “CP08”, left) or CEACAM1 antibody CM-24 was incubated at room temperature for 30 min, washed twice with staining buffer, and stained for anti-human IgG4 Fluorescein isothiocyanate (FITC) conjugated secondary antibody at room temperature for 20 min. Fluorescence intensities were determined by flow cytometry. Live cells were determined by 4′,6-diamidino-2-phenylindole (DAPI) staining as shown on the y-axis. Staining with the respective CEACAM1 antibody is shown on the x-axis. […]
The cervical adenocarcinoma cell line HeLa (ATCC No CCL-2) as well as transfected cell lines HeLaCEACAM1, HeLaCEACAM3, HeLaCEACAM5, HeLaCEACAM6 and HeLaCEACAM8 used for flow cytometry experiments were cultured at 37° C., 5.0% CO₂ in Dulbecco's modified Eagle's medium supplemented with 10% fetal bovine serum, penicillin (100 U/ml) and dihydrostreptomycin (100 μg/ml). […] Data were acquired with a Cytoflex flow cytometer (Invitrogen) and analyzed with FlowJo software (TreeStar, V7.6.5 for Windows).
In general terms: In flow cytometry, cells or beads pass a laser one at a time.

Residue numbers refer to the chain shown, from its start. In names and notes the source's numbering stands.

Usually Kd stands for the equilibrium constant for the complex coming apart. Low values mean tighter binding, high ones weaker binding. A word on the koff: it is the first-order rate constant of dissociation. Read a high koff as fast dissociation. One may read the kon as the rate constant with which the complex forms. The low end stands for slow association, the high end for fast association.

B1: VH1/Vκ8 S29A (antibody, IgG4, V domains shown)
VH: EVQLLESGGGLVQPGGSLRLSCAASGFIFSSHGMSWVRQAPGKGLEWVATISSGGTYTYYPDSVKGRFTISRDNSKNTLYLQMNSLKAEDTAMYYCARHDFDYDAAWFAYWGQGTLVTVSS
VL: EIVLTQSPATLSLSPGERATLSCRANSAVSYMYWYQQKPGQAPRPWIYLTSNRATGVPARFSGSGSGTDYTLTISSLEPEDFAVYYCQQWSSNPPTFGQGTKLEIK
notes: IgG4 (S241P), kappa; also called Parent; Parent (VH1/Vκ8 S29A)
As to B1, in assay [1], binding was put at a Kd of 590 nM, the koff was determined as 0.057 s⁻¹, the kon was determined as 95000 M⁻¹ s⁻¹ and the “relative KD to parent” value was 1.

B2: CP08H03/Vκ8 S29A (antibody, IgG4, V domains shown)
VH: B1 VH with D104F, A105P, A106Y, Y110H
VL: B1 VL
notes: IgG4 (S241P), kappa; also called CP08_H03/Parent VL; CP08_H03/Parental
Consider B2, for which the binding result in assay [2] is “no binding (tested: 100 ug/ml)”. In assay [1], binding was put at a Kd of 45 nM, the koff was determined as 0.0076 s⁻¹, the on-rate constant (kon) is 180000 M⁻¹ s⁻¹ and the “relative KD to parent” value is 13.7.

The record behind these values is patent US20250074980A1 (BRIGHAM AND WOMEN S HOSPITAL, published 2025).
